According to PMC7913688, “Human Rev1 relies on insert-2 to promote selective binding and accurate replication of stabilized G-quadruplex motifs”:

Assays:
[1] = target: T1, hRev1 330-833 polymerase core (human, UniProt Q9UBZ9 330-833); experiment: fluorescence polarization; 100 mM LiCl; Fluorescence polarization: 1 nM FAM-DNA, 100 mM KCl or LiCl; DNA annealed in 50 mM HEPES pH 7.5; full buffer as in cited ref 17, temperature not stated. Footprinting: 50 mM HEPES pH 7.5, 100 mM KCl, 10 uM protein, 30 uM ssDNA, room temperature; conditions: protein: recombinant; label: 5'-FAM
T1 sequence: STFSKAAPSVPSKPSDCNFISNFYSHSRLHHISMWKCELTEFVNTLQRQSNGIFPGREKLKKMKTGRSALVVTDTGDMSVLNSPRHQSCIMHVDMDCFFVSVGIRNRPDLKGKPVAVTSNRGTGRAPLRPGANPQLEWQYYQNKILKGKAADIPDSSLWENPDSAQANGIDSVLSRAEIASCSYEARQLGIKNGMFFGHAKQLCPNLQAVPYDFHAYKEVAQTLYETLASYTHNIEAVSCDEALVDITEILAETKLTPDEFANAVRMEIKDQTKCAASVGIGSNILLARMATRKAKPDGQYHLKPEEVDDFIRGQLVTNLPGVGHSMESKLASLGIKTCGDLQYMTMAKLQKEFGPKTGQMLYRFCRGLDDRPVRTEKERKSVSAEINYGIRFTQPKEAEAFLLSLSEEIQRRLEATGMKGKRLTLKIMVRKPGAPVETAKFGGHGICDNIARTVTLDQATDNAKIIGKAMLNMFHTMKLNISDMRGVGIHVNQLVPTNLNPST

[2] = target: T1, hRev1 330-833 polymerase core; experiment: fluorescence polarization; 100 mM KCl; Fluorescence polarization: 1 nM FAM-DNA, 100 mM KCl or LiCl; DNA annealed in 50 mM HEPES pH 7.5; full buffer as in cited ref 17, temperature not stated. Footprinting: 50 mM HEPES pH 7.5, 100 mM KCl, 10 uM protein, 30 uM ssDNA, room temperature; conditions: protein: recombinant
[3] = target: T1, hRev1 330-833 polymerase core; experiment: fluorescence polarization; 100 mM KCl (text: 127 +/- 14); Fluorescence polarization: 1 nM FAM-DNA, 100 mM KCl or LiCl; DNA annealed in 50 mM HEPES pH 7.5; full buffer as in cited ref 17, temperature not stated. Footprinting: 50 mM HEPES pH 7.5, 100 mM KCl, 10 uM protein, 30 uM ssDNA, room temperature; conditions: protein: recombinant; label: 5'-FAM; antiparallel G4 in K+
[4] = target: T1, hRev1 330-833 polymerase core; experiment: fluorescence polarization; 100 mM LiCl (text: 139 +/- 17); Fluorescence polarization: 1 nM FAM-DNA, 100 mM KCl or LiCl; DNA annealed in 50 mM HEPES pH 7.5; full buffer as in cited ref 17, temperature not stated. Footprinting: 50 mM HEPES pH 7.5, 100 mM KCl, 10 uM protein, 30 uM ssDNA, room temperature; conditions: protein: recombinant; label: 5'-FAM; antiparallel G4 in K+
[5] = target: T1, hRev1 330-833 polymerase core; experiment: fluorescence polarization; 100 mM KCl (text: 406 +/- 38); Fluorescence polarization: 1 nM FAM-DNA, 100 mM KCl or LiCl; DNA annealed in 50 mM HEPES pH 7.5; full buffer as in cited ref 17, temperature not stated. Footprinting: 50 mM HEPES pH 7.5, 100 mM KCl, 10 uM protein, 30 uM ssDNA, room temperature; conditions: protein: recombinant; label: 5'-FAM; hybrid G4 in K+
[6] = target: T1, hRev1 330-833 polymerase core; experiment: fluorescence polarization; 100 mM KCl (text: 1246 +/- 196); Fluorescence polarization: 1 nM FAM-DNA, 100 mM KCl or LiCl; DNA annealed in 50 mM HEPES pH 7.5; full buffer as in cited ref 17, temperature not stated. Footprinting: 50 mM HEPES pH 7.5, 100 mM KCl, 10 uM protein, 30 uM ssDNA, room temperature; conditions: protein: recombinant; label: 5'-FAM
[7] = label: 5'-FAM on template, parallel G4 in 5' overhang 18 nt, 11 bp duplex

Binder: AGCGCGCTGTGCGAAGAGCGAATATGAGATGAT (ssDNA) [Non-G4 KRAS control ss]
- Kd [1]: 1620 ± 800 nM
- Kd ([2]; label: 5'-FAM): 840 ± 90 nM

Binder: TGGTTGGTGTGGTTGGTATGAGATGAT (structured_DNA) [TBA ss G4]
- Kd [3]: 130 ± 10 nM
- Kd [4]: 140 ± 20 nM

Binder: TGCTTGCTGTGCTTGCTATGAGATGAT (ssDNA) [Non-G4 TBA control ss]
- Kd [1]: 310 ± 40 nM
- Kd ([2]; label: 5'-FAM): 380 ± 40 nM

Binder: TTGGGTTAGGGTTAGGGTTAGGGATATGAGATGAT (structured_DNA) [hTelo-4 ss G4]
- Kd [5]: 410 ± 40 nM

Binder: TTGCGTTAGCGTTAGCGTTAGCGATATGAGATGAT (ssDNA) [Non-G4 Telo-4 control ss]
- Kd [6]: 1200 ± 200 nM
- Kd [1]: 920 ± 120 nM

Binder: AGCGCGCGGCCGGCGAGCGTATGAGATGAT (ssDNA) [Non-G4 Rev1-prom control ss]
- Kd [1]: 260 ± 120 nM
- Kd ([2]; label: 5'-FAM): 370 ± 70 nM

Binder: AGCGGCGCGCGCTTTAGGAAAAGCGCGCGTTATGAGATGAT (ssDNA) [Non-G4 Bcl2 control ss]
- Kd [1]: 750 ± 340 nM
- Kd ([2]; label: 5'-FAM): 830 ± 310 nM

B1: Myc 14/23 primer-template (mixed)
DNA 1: AGGGTGGGTAGGGTGGGTTATGAGATGAT
DNA 2: ATCATCTCATA
- Kd [2, 7]: 59 ± 9 nM

B2: Myc 2/11 primer-template (mixed)
DNA 1: AGGGAGGGTGGGAAGGGTTATGAGATGAT
DNA 2: ATCATCTCATA
- Kd [2, 7]: 45 ± 6 nM

B3: Rev1-prom primer-template (mixed)
DNA 1: AGGGCGGGGCCGGGGAGGGTATGAGATGAT
DNA 2: ATCATCTCATA
- Kd ([2]; label: 5'-FAM on template, parallel G4 in 5' overhang 19 nt, 11 bp duplex): 11 ± 2 nM

B4: Non-G4 Rev1-prom primer-template (mixed)
DNA 1: AGCGCGCGGCCGGCGAGCGTATGAGATGAT
DNA 2: ATCATCTCATA
- Kd ([2]; label: 5'-FAM on template, 5' overhang 19 nt, 11 bp duplex): 154 ± 30 nM

B5: Bcl2 1245 primer-template (mixed)
DNA 1: AGGGGCGGGCGCTTTAGGAAAAGGGCGGGTTATGAGATGAT
DNA 2: ATCATCTCATA
- Kd ([2]; label: 5'-FAM on template, parallel G4 in 5' overhang 30 nt, 11 bp duplex): 97 ± 20 nM

B6: Non-G4 Bcl2 primer-template (mixed)
DNA 1: AGCGGCGCGCGCTTTAGGAAAAGCGCGCGTTATGAGATGAT
DNA 2: ATCATCTCATA
- Kd ([2]; label: 5'-FAM on template, 5' overhang 30 nt, 11 bp duplex): 660 ± 120 nM

B7: KRAS 22RT primer-template (mixed)
DNA 1: AGGGCGGTGTGGGAAGAGGGAATATGAGATGAT
DNA 2: ATCATCTCATA
- Kd ([2]; label: 5'-FAM on template, parallel G4 in 5' overhang 22 nt, 11 bp duplex): 120 ± 10 nM

B8: Non-G4 KRAS primer-template (mixed)
DNA 1: AGCGCGCTGTGCGAAGAGCGAATATGAGATGAT
DNA 2: ATCATCTCATA
- Kd ([2]; label: 5'-FAM on template, 5' overhang 22 nt, 11 bp duplex): 1120 ± 80 nM

B9: TBA primer-template (mixed)
DNA 1: TGGTTGGTGTGGTTGGTATGAGATGAT
DNA 2: ATCATCTCATA
- Kd ([2]; label: 5'-FAM on template, antiparallel G4 in 5' overhang 16 nt, 11 bp duplex): 165 ± 25 nM

B10: hTelo-4 primer-template (mixed)
DNA 1: TTGGGTTAGGGTTAGGGTTAGGGATATGAGATGAT
DNA 2: ATCATCTCATA
- Kd ([2]; label: 5'-FAM on template, hybrid G4 in 5' overhang 24 nt, 11 bp duplex): 840 ± 50 nM

Binder: AGGGAGGGTGGGAAGGGTTATGAGATGAT (structured_DNA) [Myc 2/11 ss G4]
- Kd ([2]; label: 5'-FAM, parallel G4 (1:1:2 loops) in K+): 22 ± 3 nM

Binder: AGGGCGGGGCCGGGGAGGGTATGAGATGAT (structured_DNA) [Rev1-prom ss G4]
- Kd ([2]; label: 5'-FAM, parallel G4 (1:4:1 loops as stated) in K+): 13 ± 3 nM

Binder: AGGGGCGGGCGCTTTAGGAAAAGGGCGGGTTATGAGATGAT (structured_DNA) [Bcl2 1245 ss G4]
- Kd ([2]; label: 5'-FAM, parallel G4 (13-nt loop) in K+): 76 ± 16 nM

Binder: AGGGCGGTGTGGGAAGAGGGAATATGAGATGAT (structured_DNA) [KRAS 22RT ss G4]
- Kd ([2]; label: 5'-FAM, parallel G4 in K+): 52 ± 10 nM
